Legend:
p53rec [1] = target: T1, p53rec (UniProt P04637 1-393); assay: competition; 1 uM competitor vs 20 nM labelled GADD45; EMSA: 0.4 uM p53 variant (0.1 uM tetramer), 20 nM 32P-DNA, 1 uM unlabelled competitor where used, 20 min at RT, native gel; a p53 369-383 peptide was synthesized for the EMSAs; buffer, salt and pH not in the material; settings: protein: recombinant; tags: untagged; chain copies: 4; label: none (unlabelled)
p53rec [2] = target: T1, p53rec; assay: EMSA; 0.4 uM p53 (0.1 uM tetramer), 20 nM DNA; EMSA: 0.4 uM p53 variant (0.1 uM tetramer), 20 nM 32P-DNA, 1 uM unlabelled competitor where used, 20 min at RT, native gel; a p53 369-383 peptide was synthesized for the EMSAs; buffer, salt and pH not in the material; settings: protein: recombinant; tags: untagged; chain copies: 4; label: 32P

T1 sequence (P04637 whole entry): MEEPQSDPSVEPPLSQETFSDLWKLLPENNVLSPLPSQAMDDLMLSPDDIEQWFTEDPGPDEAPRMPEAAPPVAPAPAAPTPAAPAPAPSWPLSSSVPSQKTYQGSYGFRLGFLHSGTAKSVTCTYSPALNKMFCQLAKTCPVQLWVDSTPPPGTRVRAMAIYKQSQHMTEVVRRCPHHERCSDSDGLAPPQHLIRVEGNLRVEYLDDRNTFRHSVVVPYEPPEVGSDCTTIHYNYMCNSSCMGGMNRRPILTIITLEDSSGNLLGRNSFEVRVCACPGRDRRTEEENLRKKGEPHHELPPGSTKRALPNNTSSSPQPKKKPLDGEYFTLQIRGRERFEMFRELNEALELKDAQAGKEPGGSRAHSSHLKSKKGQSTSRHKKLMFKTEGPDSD

| Binder | binding result (p53rec [1]) | binding result (p53rec [2]) |
| --- | --- | --- |
| GADD45 unlabelled competitor (dsDNA) DNA 1: GTACAGAACATGTCTAAGCATGCTGGGGAC DNA 2: GTCCCCAGCATGCTTAGACATGTTCTGTAC | binds |  |
| GADD45 target (dsDNA) DNA 1: GTACAGAACATGTCTAAGCATGCTGGGGAC DNA 2: GTCCCCAGCATGCTTAGACATGTTCTGTAC |  | binds |
| randomized competitor (dsDNA) DNA 1: CCACCATACCTTCGATTATCGCGCCCACTC DNA 2: GAGTGGGCGCGATAATCGAAGGTATGGTGG | no binding |  |

— PMC8221199, “Semisynthetic ‘designer’ p53 sheds light on a phosphorylation–acetylation relay†”
